# Values quoted from earlier work in paper PMC12188480.
# Molecular target: c-MET (Homo sapiens) (UniProt P08581)
# Sequence (P08581 25-932): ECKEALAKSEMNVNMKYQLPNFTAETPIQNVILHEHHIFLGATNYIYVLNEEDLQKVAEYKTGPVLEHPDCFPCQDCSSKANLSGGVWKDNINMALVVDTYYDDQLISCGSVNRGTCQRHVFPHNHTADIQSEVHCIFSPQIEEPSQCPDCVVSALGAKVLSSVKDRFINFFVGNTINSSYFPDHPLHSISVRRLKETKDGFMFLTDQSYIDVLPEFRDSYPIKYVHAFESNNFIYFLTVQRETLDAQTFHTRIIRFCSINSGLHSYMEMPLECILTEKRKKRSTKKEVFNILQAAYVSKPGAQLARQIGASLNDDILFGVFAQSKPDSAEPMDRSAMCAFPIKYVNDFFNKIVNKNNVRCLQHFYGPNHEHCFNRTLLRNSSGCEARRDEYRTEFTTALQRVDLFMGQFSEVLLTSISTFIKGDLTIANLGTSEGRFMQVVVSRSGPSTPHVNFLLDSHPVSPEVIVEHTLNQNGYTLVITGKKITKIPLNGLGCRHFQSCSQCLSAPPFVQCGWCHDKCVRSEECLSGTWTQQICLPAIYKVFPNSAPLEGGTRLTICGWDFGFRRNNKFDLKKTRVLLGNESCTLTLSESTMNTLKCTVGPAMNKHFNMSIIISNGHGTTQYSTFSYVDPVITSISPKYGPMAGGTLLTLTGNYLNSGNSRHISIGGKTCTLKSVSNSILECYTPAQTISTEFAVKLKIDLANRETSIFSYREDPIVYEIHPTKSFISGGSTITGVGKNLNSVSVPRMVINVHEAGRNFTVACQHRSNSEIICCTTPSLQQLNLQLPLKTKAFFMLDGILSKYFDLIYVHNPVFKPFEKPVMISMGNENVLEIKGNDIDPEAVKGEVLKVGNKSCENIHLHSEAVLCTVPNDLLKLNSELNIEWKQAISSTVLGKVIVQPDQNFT
substance,measurement,value
onartuzumab,Kd,1.2 nM
